According to US10253078 (ZEALAND PHARMA A S, dated 2019):
Starred links: 1 amine or outer side, 2 acyl side, 3 side chain; linkers in the order of their positions; H or OH if unused. Non-standard residues stand in square brackets, D forms with d. Groups on a side chain read outwards from the residue. *: point of attachment. C20 diacid = O=C(O)CCCCCCCCCCCCCCCCCCC(=O)*; γGlu = O=C(O)[C@H](CCC(=O)[*:2])N[*:1]; Palmitoyl = CCCCCCCCCCCCCCCC(=O)*; Aib = CC(C)(N)C(=O)O

T1: human GIP receptor (human, UniProt P48546 22-466)
T1 sequence (looked up): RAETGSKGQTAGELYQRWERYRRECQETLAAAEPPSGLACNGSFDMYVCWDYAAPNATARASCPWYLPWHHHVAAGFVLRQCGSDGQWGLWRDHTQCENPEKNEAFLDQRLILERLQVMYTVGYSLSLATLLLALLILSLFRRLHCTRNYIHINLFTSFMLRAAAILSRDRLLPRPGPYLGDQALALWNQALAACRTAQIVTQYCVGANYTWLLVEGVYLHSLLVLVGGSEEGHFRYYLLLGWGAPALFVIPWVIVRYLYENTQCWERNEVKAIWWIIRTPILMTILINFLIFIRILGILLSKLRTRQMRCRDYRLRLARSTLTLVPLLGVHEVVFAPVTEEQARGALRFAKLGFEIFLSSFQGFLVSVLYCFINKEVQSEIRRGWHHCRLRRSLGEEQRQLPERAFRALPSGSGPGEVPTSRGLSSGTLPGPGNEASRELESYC

B1: Compound 19 (peptide)
peptide: YAEGTFISDYSIELDKKAQRAFIEWLLAQGPSSGAPPPS
modifications: Aib at 2; Lys 17 side chain acylated: K((19-Carboxy-nonadecanoyl)-[(Piperazine-1-yl)-acetyl]-Peg3-Peg3); C-terminal amide (-NH2)
B2: Compound 5 (peptide)
peptide: H-Y[Aib]EGTFISDYSIELDKIHQQDFVNWLLAQGPSSGAPPPSK([γGlu-Palmitoyl])-NH2
SMILES: CCCCCCCCCCCCCCCC(=O)N[C@@H](CCC(=O)NCCCC[C@H](NC(=O)[C@H](CO)NC(=O)[C@@H]1CCCN1C(=O)[C@@H]1CCCN1C(=O)[C@@H]1CCCN1C(=O)[C@H](C)NC(=O)CNC(=O)[C@H](CO)NC(=O)[C@H](CO)NC(=O)[C@@H]1CCCN1C(=O)CNC(=O)[C@H](CCC(N)=O)NC(=O)[C@H](C)NC(=O)[C@H](CC(C)C)NC(=O)[C@H](CC(C)C)NC(=O)[C@H](Cc1c[nH]c2ccccc12)NC(=O)[C@H](CC(N)=O)NC(=O)[C@@H](NC(=O)[C@H](Cc1ccccc1)NC(=O)[C@H](CC(=O)O)NC(=O)[C@H](CCC(N)=O)NC(=O)[C@H](CCC(N)=O)NC(=O)[C@H](Cc1c[nH]cn1)NC(=O)[C@@H](NC(=O)[C@H](CCCCN)NC(=O)[C@H](CC(=O)O)NC(=O)[C@H](CC(C)C)NC(=O)[C@H](CCC(=O)O)NC(=O)[C@@H](NC(=O)[C@H](CO)NC(=O)[C@H](Cc1ccc(O)cc1)NC(=O)[C@H](CC(=O)O)NC(=O)[C@H](CO)NC(=O)[C@@H](NC(=O)[C@H](Cc1ccccc1)NC(=O)[C@@H](NC(=O)CNC(=O)[C@H](CCC(=O)O)NC(=O)C(C)(C)NC(=O)[C@@H](N)Cc1ccc(O)cc1)[C@@H](C)O)[C@@H](C)CC)[C@@H](C)CC)[C@@H](C)CC)C(C)C)C(N)=O)C(=O)O
B3: Compound 2 (peptide)
peptide: H-Y[Aib]EGTFISDYSIELDK([γGlu-Palmitoyl])IHQQDFVNWLLAQGPSSGAPPPS-NH2
SMILES: CCCCCCCCCCCCCCCC(=O)N[C@@H](CCC(=O)NCCCC[C@H](NC(=O)[C@H](CC(=O)O)NC(=O)[C@H](CC(C)C)NC(=O)[C@H](CCC(=O)O)NC(=O)[C@@H](NC(=O)[C@H](CO)NC(=O)[C@H](Cc1ccc(O)cc1)NC(=O)[C@H](CC(=O)O)NC(=O)[C@H](CO)NC(=O)[C@@H](NC(=O)[C@H](Cc1ccccc1)NC(=O)[C@@H](NC(=O)CNC(=O)[C@H](CCC(=O)O)NC(=O)C(C)(C)NC(=O)[C@@H](N)Cc1ccc(O)cc1)[C@@H](C)O)[C@@H](C)CC)[C@@H](C)CC)C(=O)N[C@H](C(=O)N[C@@H](Cc1c[nH]cn1)C(=O)N[C@@H](CCC(N)=O)C(=O)N[C@@H](CCC(N)=O)C(=O)N[C@@H](CC(=O)O)C(=O)N[C@@H](Cc1ccccc1)C(=O)N[C@H](C(=O)N[C@@H](CC(N)=O)C(=O)N[C@@H](Cc1c[nH]c2ccccc12)C(=O)N[C@@H](CC(C)C)C(=O)N[C@@H](CC(C)C)C(=O)N[C@@H](C)C(=O)N[C@@H](CCC(N)=O)C(=O)NCC(=O)N1CCC[C@H]1C(=O)N[C@@H](CO)C(=O)N[C@@H](CO)C(=O)NCC(=O)N[C@@H](C)C(=O)N1CCC[C@H]1C(=O)N1CCC[C@H]1C(=O)N1CCC[C@H]1C(=O)N[C@@H](CO)C(N)=O)C(C)C)[C@@H](C)CC)C(=O)O
B4: Compound 7 (peptide)
peptide: H-Y[Aib]EGTFISDYSIELDKIHQQDFVNWLLAQKGK([γGlu-Palmitoyl])-NH2
SMILES: CCCCCCCCCCCCCCCC(=O)N[C@@H](CCC(=O)NCCCC[C@H](NC(=O)CNC(=O)[C@H](CCCCN)NC(=O)[C@H](CCC(N)=O)NC(=O)[C@H](C)NC(=O)[C@H](CC(C)C)NC(=O)[C@H](CC(C)C)NC(=O)[C@H](Cc1c[nH]c2ccccc12)NC(=O)[C@H](CC(N)=O)NC(=O)[C@@H](NC(=O)[C@H](Cc1ccccc1)NC(=O)[C@H](CC(=O)O)NC(=O)[C@H](CCC(N)=O)NC(=O)[C@H](CCC(N)=O)NC(=O)[C@H](Cc1c[nH]cn1)NC(=O)[C@@H](NC(=O)[C@H](CCCCN)NC(=O)[C@H](CC(=O)O)NC(=O)[C@H](CC(C)C)NC(=O)[C@H](CCC(=O)O)NC(=O)[C@@H](NC(=O)[C@H](CO)NC(=O)[C@H](Cc1ccc(O)cc1)NC(=O)[C@H](CC(=O)O)NC(=O)[C@H](CO)NC(=O)[C@@H](NC(=O)[C@H](Cc1ccccc1)NC(=O)[C@@H](NC(=O)CNC(=O)[C@H](CCC(=O)O)NC(=O)C(C)(C)NC(=O)[C@@H](N)Cc1ccc(O)cc1)[C@@H](C)O)[C@@H](C)CC)[C@@H](C)CC)[C@@H](C)CC)C(C)C)C(N)=O)C(=O)O
B5: Compound 1 (peptide)
peptide: H-Y[Aib]EGTFISDYSIELDKK([γGlu-Palmitoyl])HQQDFVNWLLAQGPSSGAPPPS-NH2
SMILES: CCCCCCCCCCCCCCCC(=O)N[C@@H](CCC(=O)NCCCC[C@H](NC(=O)[C@H](CCCCN)NC(=O)[C@H](CC(=O)O)NC(=O)[C@H](CC(C)C)NC(=O)[C@H](CCC(=O)O)NC(=O)[C@@H](NC(=O)[C@H](CO)NC(=O)[C@H](Cc1ccc(O)cc1)NC(=O)[C@H](CC(=O)O)NC(=O)[C@H](CO)NC(=O)[C@@H](NC(=O)[C@H](Cc1ccccc1)NC(=O)[C@@H](NC(=O)CNC(=O)[C@H](CCC(=O)O)NC(=O)C(C)(C)NC(=O)[C@@H](N)Cc1ccc(O)cc1)[C@@H](C)O)[C@@H](C)CC)[C@@H](C)CC)C(=O)N[C@@H](Cc1c[nH]cn1)C(=O)N[C@@H](CCC(N)=O)C(=O)N[C@@H](CCC(N)=O)C(=O)N[C@@H](CC(=O)O)C(=O)N[C@@H](Cc1ccccc1)C(=O)N[C@H](C(=O)N[C@@H](CC(N)=O)C(=O)N[C@@H](Cc1c[nH]c2ccccc12)C(=O)N[C@@H](CC(C)C)C(=O)N[C@@H](CC(C)C)C(=O)N[C@@H](C)C(=O)N[C@@H](CCC(N)=O)C(=O)NCC(=O)N1CCC[C@H]1C(=O)N[C@@H](CO)C(=O)N[C@@H](CO)C(=O)NCC(=O)N[C@@H](C)C(=O)N1CCC[C@H]1C(=O)N1CCC[C@H]1C(=O)N1CCC[C@H]1C(=O)N[C@@H](CO)C(N)=O)C(C)C)C(=O)O
B6: Compound 6 (peptide)
peptide: H-Y[Aib]EGTFISDYSIELDKIHQQDFVNWLLAQK([γGlu-Palmitoyl])-NH2
SMILES: CCCCCCCCCCCCCCCC(=O)N[C@@H](CCC(=O)NCCCC[C@H](NC(=O)[C@H](CCC(N)=O)NC(=O)[C@H](C)NC(=O)[C@H](CC(C)C)NC(=O)[C@H](CC(C)C)NC(=O)[C@H](Cc1c[nH]c2ccccc12)NC(=O)[C@H](CC(N)=O)NC(=O)[C@@H](NC(=O)[C@H](Cc1ccccc1)NC(=O)[C@H](CC(=O)O)NC(=O)[C@H](CCC(N)=O)NC(=O)[C@H](CCC(N)=O)NC(=O)[C@H](Cc1c[nH]cn1)NC(=O)[C@@H](NC(=O)[C@H](CCCCN)NC(=O)[C@H](CC(=O)O)NC(=O)[C@H](CC(C)C)NC(=O)[C@H](CCC(=O)O)NC(=O)[C@@H](NC(=O)[C@H](CO)NC(=O)[C@H](Cc1ccc(O)cc1)NC(=O)[C@H](CC(=O)O)NC(=O)[C@H](CO)NC(=O)[C@@H](NC(=O)[C@H](Cc1ccccc1)NC(=O)[C@@H](NC(=O)CNC(=O)[C@H](CCC(=O)O)NC(=O)C(C)(C)NC(=O)[C@@H](N)Cc1ccc(O)cc1)[C@@H](C)O)[C@@H](C)CC)[C@@H](C)CC)[C@@H](C)CC)C(C)C)C(N)=O)C(=O)O
B7: Compound 3 (peptide)
peptide: H-Y[Aib]EGTFISDYSIELEKK([γGlu-Palmitoyl])HQQDFVNWLLAQGPSSGAPPPS-NH2
SMILES: CCCCCCCCCCCCCCCC(=O)N[C@@H](CCC(=O)NCCCC[C@H](NC(=O)[C@H](CCCCN)NC(=O)[C@H](CCC(=O)O)NC(=O)[C@H](CC(C)C)NC(=O)[C@H](CCC(=O)O)NC(=O)[C@@H](NC(=O)[C@H](CO)NC(=O)[C@H](Cc1ccc(O)cc1)NC(=O)[C@H](CC(=O)O)NC(=O)[C@H](CO)NC(=O)[C@@H](NC(=O)[C@H](Cc1ccccc1)NC(=O)[C@@H](NC(=O)CNC(=O)[C@H](CCC(=O)O)NC(=O)C(C)(C)NC(=O)[C@@H](N)Cc1ccc(O)cc1)[C@@H](C)O)[C@@H](C)CC)[C@@H](C)CC)C(=O)N[C@@H](Cc1c[nH]cn1)C(=O)N[C@@H](CCC(N)=O)C(=O)N[C@@H](CCC(N)=O)C(=O)N[C@@H](CC(=O)O)C(=O)N[C@@H](Cc1ccccc1)C(=O)N[C@H](C(=O)N[C@@H](CC(N)=O)C(=O)N[C@@H](Cc1c[nH]c2ccccc12)C(=O)N[C@@H](CC(C)C)C(=O)N[C@@H](CC(C)C)C(=O)N[C@@H](C)C(=O)N[C@@H](CCC(N)=O)C(=O)NCC(=O)N1CCC[C@H]1C(=O)N[C@@H](CO)C(=O)N[C@@H](CO)C(=O)NCC(=O)N[C@@H](C)C(=O)N1CCC[C@H]1C(=O)N1CCC[C@H]1C(=O)N1CCC[C@H]1C(=O)N[C@@H](CO)C(N)=O)C(C)C)C(=O)O

What follows are binders tested against human GLP-1 receptor (human, UniProt P43220 24-463) (assay: cell-based or functional assay).

| Binder | EC50 hGLP1 R (cAMP, HEK293 cells expressing the GLP-1R) |
| --- | --- |
| H-Y[Aib]EGTFISDYSIELDKK([Peg3-Peg3-γGlu-C20 diacid])HQQDFVNWLLAQGPSSGAPPPS-NH2 [Compound 9] | > 3 nM |
| B1 | > 3 nM |

Each binder was assayed against T1, human GIP receptor (assay: cell-based or functional assay).

| Binder | EC50 hGIP R (cAMP, HEK293 cells expressing the GIP R) |
| --- | --- |
| B2 | 0.014 nM |
| B3 | 0.008 nM |
| H-Y[Aib]EGTFISDYSIELDKK([Peg3-Peg3-γGlu-C20 diacid])HQQDFVNWLLAQGPSSGAPPPS-NH2 [Compound 9] | 0.009 nM |
| B4 | 0.032 nM |
| B5 | 0.003 nM |
| B1 | 0.005 nM |
| B6 | 0.014 nM |
| H-Y[Aib]EGTFISDYSIELDKIHQQDFVNWLLAQGPSSGAPPPSK([Peg3-Peg3-γGlu-C20 diacid])-NH2 [Compound 4] | 0.014 nM |
| B7 | 0.014 nM |

Biological target: T1, human GIP receptor
Experiment: cell-based or functional assay
Remark: another data set of the same source

| Binder | EC50, hGIP-R level of cAMP (HEK293 cells expressing human GIP R) |
| --- | --- |
| B2 | 0.014 nM |
| B3 | 0.013 nM |
| H-Y[Aib]EGTFISDYSIELDKK([Peg3-Peg3-γGlu-C20 diacid])HQQDFVNWLLAQGPSSGAPPPS-NH2 [Compound 9] | 0.008 nM |
| B4 | 0.018 nM |
| B5 | 0.008 nM |
| B1 | 0.006 nM |
| B6 | 0.032 nM |
| H-Y[Aib]EGTFISDYSIELDKIHQQDFVNWLLAQGPSSGAPPPSK([Peg3-Peg3-γGlu-C20 diacid])-NH2 [Compound 4] | 0.013 nM |
| B7 | 0.014 nM |
